Results from patent US20260217793A1 (Chugai, published 2026).

Experiments:
Assay in all cases: SPR
FcγRIIb = molecular target: T1, FcγRIIb (human, UniProt P31994 43-217)
T1 sequence (looked up): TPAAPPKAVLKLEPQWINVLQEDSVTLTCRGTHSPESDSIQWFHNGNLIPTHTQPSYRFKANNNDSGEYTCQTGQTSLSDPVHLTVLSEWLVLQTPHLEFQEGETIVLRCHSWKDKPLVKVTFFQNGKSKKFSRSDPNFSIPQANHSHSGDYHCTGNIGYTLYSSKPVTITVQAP

FcγRIIIa type V = FcγRIIIa type V (human, UniProt P08637 17-208)
FcγRIIa type R = molecular target: T2, FcγRIIa type R (human, UniProt P12318 34-217)
T2 sequence (looked up): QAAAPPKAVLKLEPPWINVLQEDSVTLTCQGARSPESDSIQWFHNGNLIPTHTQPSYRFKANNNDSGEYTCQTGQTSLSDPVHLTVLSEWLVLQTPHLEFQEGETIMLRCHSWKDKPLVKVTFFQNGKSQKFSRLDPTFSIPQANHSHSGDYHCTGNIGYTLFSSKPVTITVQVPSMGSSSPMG

FcγRIIa type H = molecular target: T3, FcγRIIa type H (human, UniProt P12318 34-217)
T3 sequence (looked up): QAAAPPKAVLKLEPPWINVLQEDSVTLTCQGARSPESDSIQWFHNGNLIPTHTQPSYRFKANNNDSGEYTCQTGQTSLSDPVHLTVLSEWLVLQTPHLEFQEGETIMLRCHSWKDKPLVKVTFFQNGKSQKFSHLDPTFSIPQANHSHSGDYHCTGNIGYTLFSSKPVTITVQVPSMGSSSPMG

FcγRIa = FcγRIa (human, UniProt P12314 16-292)
FcγRIa, sequence (P12314 16-292): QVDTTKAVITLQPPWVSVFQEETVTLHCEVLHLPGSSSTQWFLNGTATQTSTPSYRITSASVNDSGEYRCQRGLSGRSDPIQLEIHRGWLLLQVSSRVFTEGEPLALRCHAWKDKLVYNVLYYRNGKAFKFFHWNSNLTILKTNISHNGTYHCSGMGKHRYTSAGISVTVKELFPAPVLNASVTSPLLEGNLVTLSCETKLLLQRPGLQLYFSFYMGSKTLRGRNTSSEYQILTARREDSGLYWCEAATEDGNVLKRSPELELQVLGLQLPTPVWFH

FcγRIIIa type V, sequence (P08637 17-208 F176V): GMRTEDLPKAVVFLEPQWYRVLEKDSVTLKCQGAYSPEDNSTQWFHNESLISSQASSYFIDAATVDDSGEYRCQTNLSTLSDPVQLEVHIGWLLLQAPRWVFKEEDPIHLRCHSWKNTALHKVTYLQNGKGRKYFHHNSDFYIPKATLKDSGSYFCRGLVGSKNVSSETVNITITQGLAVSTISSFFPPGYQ

relative binding activity (FcγRIIb): 164 % of control
relative binding activity (FcγRIIIa type V): 157 % of control
relative binding activity (FcγRIIa type R): 449 % of control
relative binding activity (FcγRIIa type H): 188 % of control
relative binding activity (FcγRIa): 104 % of control
B1: IL6R-BP198/IL6R-L (antibody, human IgG1, kappa)
heavy: QVQLQESGPGLVKPSETLSLTCAVSGHSISHDHAWSWVRQPPGEGLEWIGFISYSGITNYNPSLQGRVTISRDNSKNTLYLQMNSLRAEDTAVYYCARSLARTTAMDYWGEGTLVTVSSASTKGPSVFPLAPSSKSTSGGTAALGCLVKDYFPEPVTVSWNSGALTSGVHTFPAVLQSSGLYSLSSVVTVPSSSLGTQTYICNVNHKPSNTKVDKKVEPKSCDKTHTCPPCPAPDYLGGDSVFLFPPKPKDTLMISRTPEVTCVVVDVSDEDGEVKFNWYVDGVEVHNAKTKPREEQYNSTYRVVSVLTVLHQDWLNGKEYKCKVSNAALPKPIEKTISKAKGQPREPQVYTLPPSRDELTKNQVSLTCLVKGFYPSDIAVEWESNGQPENNYKTTPPVLDSDGSFFLYSKLTVDKSRWQQGNVFSCSVMHEALHNHYTQESLSLSP
light: not shown
